One assay addresses T1, RasGRF1 (Mus musculus, UniProt P27671).
T1 construct: In vitro translated full-length RasGRF1 and AU1-tagged NR2B fragments were coimmunopecipitated with AU1 antibody; made in house; host or cells: cell-free in vitro translation (TNT system, [35S]methionine)
T1 sequence (P27671 1-1262): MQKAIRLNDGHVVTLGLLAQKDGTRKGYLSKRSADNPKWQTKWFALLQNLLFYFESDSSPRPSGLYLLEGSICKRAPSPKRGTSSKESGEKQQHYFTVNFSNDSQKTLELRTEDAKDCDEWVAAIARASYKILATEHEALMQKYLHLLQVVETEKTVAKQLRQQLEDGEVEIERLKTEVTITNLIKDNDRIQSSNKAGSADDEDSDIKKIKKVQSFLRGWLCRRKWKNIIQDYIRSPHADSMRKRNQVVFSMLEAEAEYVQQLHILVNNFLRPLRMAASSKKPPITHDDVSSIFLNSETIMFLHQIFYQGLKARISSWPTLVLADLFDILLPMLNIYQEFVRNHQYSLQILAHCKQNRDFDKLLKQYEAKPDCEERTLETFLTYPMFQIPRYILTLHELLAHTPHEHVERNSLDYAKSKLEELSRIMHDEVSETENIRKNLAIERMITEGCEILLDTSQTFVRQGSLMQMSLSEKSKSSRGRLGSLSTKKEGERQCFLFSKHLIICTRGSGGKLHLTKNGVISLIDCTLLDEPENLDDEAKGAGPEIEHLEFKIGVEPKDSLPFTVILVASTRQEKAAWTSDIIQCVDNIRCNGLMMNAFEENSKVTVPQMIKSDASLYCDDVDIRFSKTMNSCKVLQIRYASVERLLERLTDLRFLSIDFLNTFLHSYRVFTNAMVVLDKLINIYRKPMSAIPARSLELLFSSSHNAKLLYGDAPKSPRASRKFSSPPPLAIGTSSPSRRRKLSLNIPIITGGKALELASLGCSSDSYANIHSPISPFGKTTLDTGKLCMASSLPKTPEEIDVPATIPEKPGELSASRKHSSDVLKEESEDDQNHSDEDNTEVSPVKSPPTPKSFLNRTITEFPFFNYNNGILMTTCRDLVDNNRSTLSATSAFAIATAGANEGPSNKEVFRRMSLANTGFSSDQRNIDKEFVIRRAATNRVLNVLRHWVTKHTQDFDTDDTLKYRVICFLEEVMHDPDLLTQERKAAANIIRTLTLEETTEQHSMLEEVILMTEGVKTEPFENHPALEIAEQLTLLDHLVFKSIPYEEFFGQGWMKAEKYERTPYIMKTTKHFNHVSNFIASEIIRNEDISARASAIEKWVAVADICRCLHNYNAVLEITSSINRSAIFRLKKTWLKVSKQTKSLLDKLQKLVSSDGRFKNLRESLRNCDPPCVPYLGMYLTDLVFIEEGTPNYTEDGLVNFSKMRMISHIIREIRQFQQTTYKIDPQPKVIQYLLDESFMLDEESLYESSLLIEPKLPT
In words: pull-down / in vitro binding of NR2B fragments with in vitro translated RasGRF1. The source says: For in vitro translation, fragments of rat NR2B and rat RasGRF1 were made by PCR with 5′-primers containing AU1- and HA-tag encoding sequences; amplified sequences were subcloned into pcDNA3.1. For 293T transfection, the following cDNAs were used: mouse RasGRF1 in pcDNA3, GFP-rat NR2B, GFP rat NR2A in pcDNA1.1, and rat NR1 in pEGFP-C1 (Clontech). EGFP fusion constructs were made by subcloning cDNA fragments encoding different portions of NR2B and RasGRF1 into pEGFP-C1 (Clontech). EGFP fusion constructs were transferred from pEGFP into pSinRep5 and used for preparation of the Sindbis pseudovirus gene transfer system according to the manufacturer's protocol (Invitrogen, Carlsbad, Calif.).
Mouse RasGRF1 in pcDNA3 (Martegani, E., et al. (1992) EMBO J. 11, 2151-2157) was translated in vitro using the TNT system (Invitrogen) and [^35S]methionine. […]
For in vitro binding experiments, equimolar amounts of in vitro translated ^35S-labeled proteins (calculated from radioactivity of the excised protein band and cysteine content in the specific fragment) were incubated with a 3-fold molar excess of translated RasGRF1 for 30 min at 30° C., diluted with RIPA buffer, and immunoprecipitated with anti-HA-agarose (Santa Cruz). […]

The subject of a further assay is NMDA receptor. Description: whole-cell recordings of NMDAR-mediated currents in cultured hippocampal neurons. The assay is classed as cell-based, rat.
The subject of another assay is NR2B. In words: immunocytochemistry of NR2B and PSD-95 clusters in cultured neurons. Format: cell-based, rat. The source says: Coverslips with cultured neurons were fixed with 4% paraformaldehyde, permeabilized with 0.3% Triton X-100, and blocked in 10% goat serum in PBS. A rabbit polyclonal antibody against the N terminus of the NR2B subunit of the NMDA receptor (AB1557P, Chemicon, Temecula, Calif.) was used for detection in neurons expressing GFP and RasGRF1-BD. These antibodies could not be used for study of the NR2B subunit distribution in neurons expressing NR2B-BD since they recognized the expressed construct. The distribution of NR2A/B subunit was determined using polyclonal antibody AB 1548 (Chemicon). A mouse monoclonal antibody (clone K 28/43, Upstate, Waltham, Mass.) was used to detect PSD-95. Secondary antibodies were the same as that used for detection of ERK and MAP2. To quantify the distribution of clusters in transfected cells, we first focused on dendrites of neurons expressing the EGFP fluorescent construct. Thereafter, fluorescent images of GFP, NR2B, and PSD-95 were acquired confocally (60×; NA 1.4 objective, zoom 5). Cluster density and brightness were analyzed with the MetaMorph Imaging System (Universal Imaging, Westchester, Pa.). Ten neurons were analyzed from each experiment (3-4 dendritic regions for each neuron).

The values below come from patent US7425614B2, “Neuroprotective therapeutics preventing ERK/MAPK activation through the NMDA receptor” (Children's Medical Center Corporation, priority 2003, dated 2008).

B1: NR2B-BD: peptide of amino acids 886-1310 of the NR2B C-terminal domain that binds RasGRF1; used as NusA or EGFP fusion (protein)
chain: SPTATMNNTHSNILRLLRTAKNMANLSGVNGSPQSALDFIRRESSVYDISEHRRSFTHSDCKSYNNPPCEENLFSDYISEVERTFGNLQLKDSNVYQDHYHHHHRPHSIGSTSSIDGLYDCDNPPFTTQPRSISKKPLDIGLPSSKHSQLSDLYGKFSFKSDRYSGHDDLIRSDVSDISTHTVTYGNIEGNAAKRRKQQYKDSLKKRPASAKSRREFDEIELAYRRRPPRSPDHKRYFRDKEGLRDFYLDQFRTKENSPHWEHVDLTDIYKERSDDFKRDSVSGGGPCTNRSHLKHGTGEKHGVVGGVPAPWEKNLTNVDWEDRSGGNFCRSCPSKLHNYSSTVAGQNSGRQACIRCEACKKAGNLYDISKDNSLQELDQPAAPVAVTSNASSTKYPQSPTNSKAQKKNRNKLRRQHSYDTFVDL
modifications: left off: small tags and cut ends
notes: used as NusA or EGFP fusion
Take B1: the “binding to RasGRF1 in vitro” value with RasGRF1 is recorded as “bound”. Besides, the “average amplitude of the whole-cell current induced by bath application of NMDA” value in the assay with NMDA receptor (100 μM NMDA, neurons expressing BD fusion constructs) was “did not affect”. Besides, the “proportion of ifenprodil-sensitive (NR2B) current stimulated by NMDA bath application” value in the assay with NMDA receptor (cultured neurons, 3 μM ifenprodil) is “neither RasGRF1-BD nor NR2B-BD expression changed”. In addition, the “mean amplitude and kinetics of the spontaneous NMDAR-mediated excitatory postsynaptic currents” value with NMDA receptor (neurons expressing BD fusion constructs) was “did not affect”. Besides, the “average number NR2B-positive clusters” value with NR2B (compared to cells expressing GFP alone) is reported as “did not reveal any changes”. In the assay on NR2B (cultured neurons expressing blocking peptides), the “localization or density of NR2B or PSD-95” value was “did not change”.
